Literature values in publication PMC10065799, “High-throughput profiling of sequence recognition by tyrosine kinases and SH2 domains using bacterial peptide display” (eLife, 2023).

Molecular target: PD1 phosphosite peptide (Homo sapiens) (UniProt Q15116)

Kd: 2000 nM
Substance: SHP2 N-SH2 (from UniProt Q06124)
